{"source": "IntAct's records for PubMed 25910212", "parents": {"B1": {"name": "Prelamin-A/C (Homo sapiens), P02545-2 (parent)", "chain": "METPSQRRATRSGAQASSTPLSPTRITRLQEKEDLQELNDRLAVYIDRVRSLETENAGLRLRITESEEVVSREVSGIKAAYEAELGDARKTLDSVAKERARLQLELSKVREEFKELKARNTKKEGDLIAAQARLKDLEALLNSKEAALSTALSEKRTLEGELHDLRGQVAKLEAALGEAKKQLQDEMLRRVDAENRLQTMKEELDFQKNIYSEELRETKRRHETRLVEIDNGKQREFESRLADALQELRAQHEDQVEQYKKELEKTYSAKLDNARQSAERNSNLVGAAHEELQQSRIRIDSLSAQLSQLQKQLAAKEAKLRDLEDSLARERDTSRRLLAEKEREMAEMRARMQQQLDEYQELLDIKLALDMEIHAYRKLLEGEEERLRLSPSPTSQRSRGRASSHSSQTQGGGSVTKKRKLESTESRSSFSQHARTSGRVAVEEVDEEGKFVRLRNKSNEDQSMGNWQIKRQNGDDPLLTYRFPPKFTLKAGQVVTIWAAGAGATHSPPTDLVWKAQNTWGCGNSLRTALINSTGEEVAMRKLVRSVTVVEDDEDEDGDDLLHHHHVSGSRR"}, "B2": {"name": "U4/U6 small nuclear ribonucleoprotein Prp31 (Homo sapiens), Q8WWY3 (parent)", "chain": "MSLADELLADLEEAAEEEEGGSYGEEEEEPAIEDVQEETQLDLSGDSVKTIAKLWDSKMFAEIMMKIEEYISKQAKASEVMGPVEAAPEYRVIVDANNLTVEIENELNIIHKFIRDKYSKRFPELESLVPNALDYIRTVKELGNSLDKCKNNENLQQILTNATIMVVSVTASTTQGQQLSEEELERLEEACDMALELNASKHRIYEYVESRMSFIAPNLSIIIGASTAAKIMGVAGGLTNLSKMPACNIMLLGAQRKTLSGFSSTSVLPHTGYIYHSDIVQSLPPDLRRKAARLVAAKCTLAARVDSFHESTEGKVGYELKDEIERKFDKWQEPPPVKQVKPLPAPLDGQRKKRGGRRYRKMKERLGLTEIRKQANRMSFGEIEEDAYQEDLGFSLGHLGKSGSGRVRQTQVNEATKARISKTLQRTLQKQSVVYGGKSTIRDRSSGTASSVAFTPLQGLEIVNPQAAEKKVAEANQKYFSSMAEFLKVKGEKSGLMST", "partner": "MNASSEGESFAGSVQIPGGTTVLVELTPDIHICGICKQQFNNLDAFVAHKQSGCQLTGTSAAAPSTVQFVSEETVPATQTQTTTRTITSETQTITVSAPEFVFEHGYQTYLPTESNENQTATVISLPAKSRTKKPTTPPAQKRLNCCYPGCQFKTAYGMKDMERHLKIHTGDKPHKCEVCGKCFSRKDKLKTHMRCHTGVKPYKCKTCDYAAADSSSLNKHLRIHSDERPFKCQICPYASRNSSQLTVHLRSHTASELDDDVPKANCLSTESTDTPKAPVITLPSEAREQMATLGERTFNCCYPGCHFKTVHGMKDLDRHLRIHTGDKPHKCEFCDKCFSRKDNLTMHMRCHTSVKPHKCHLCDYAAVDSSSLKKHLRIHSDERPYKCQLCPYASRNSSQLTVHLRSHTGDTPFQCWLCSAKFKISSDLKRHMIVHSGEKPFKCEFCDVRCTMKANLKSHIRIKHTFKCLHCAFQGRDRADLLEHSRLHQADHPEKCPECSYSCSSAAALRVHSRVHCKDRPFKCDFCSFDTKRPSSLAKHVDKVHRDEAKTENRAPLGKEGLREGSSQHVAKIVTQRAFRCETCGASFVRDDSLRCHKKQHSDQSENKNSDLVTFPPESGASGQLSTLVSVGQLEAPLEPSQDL"}, "B3": {"name": "ATP synthase mitochondrial F1 complex assembly factor 2 (Homo sapiens), Q8N5M1 (parent)", "chain": "MWRSCLRLRDGGRRLLNRPAGGPSASMSPGPTIPSPARAYAPPTERKRFYQNVSITQGEGGFEINLDHRKLKTPQAKLFTVPSEALAIAVATEWDSQQDTIKYYTMHLTTLCNTSLDNPTQRNKDQLIRAAVKFLDTDTICYRVEEPETLVELQRNEWDPIIEWAEKRYGVEISSSTSIMGPSIPAKTREVLVSHLASYNTWALQGIEFVAAQLKSMVLTLGLIDLRLTVEQAVLLSRLEEEYQIQKWGNIEWAHDYELQELRARTAAGTLFIHLCSESTTVKHKLLKE", "partner": "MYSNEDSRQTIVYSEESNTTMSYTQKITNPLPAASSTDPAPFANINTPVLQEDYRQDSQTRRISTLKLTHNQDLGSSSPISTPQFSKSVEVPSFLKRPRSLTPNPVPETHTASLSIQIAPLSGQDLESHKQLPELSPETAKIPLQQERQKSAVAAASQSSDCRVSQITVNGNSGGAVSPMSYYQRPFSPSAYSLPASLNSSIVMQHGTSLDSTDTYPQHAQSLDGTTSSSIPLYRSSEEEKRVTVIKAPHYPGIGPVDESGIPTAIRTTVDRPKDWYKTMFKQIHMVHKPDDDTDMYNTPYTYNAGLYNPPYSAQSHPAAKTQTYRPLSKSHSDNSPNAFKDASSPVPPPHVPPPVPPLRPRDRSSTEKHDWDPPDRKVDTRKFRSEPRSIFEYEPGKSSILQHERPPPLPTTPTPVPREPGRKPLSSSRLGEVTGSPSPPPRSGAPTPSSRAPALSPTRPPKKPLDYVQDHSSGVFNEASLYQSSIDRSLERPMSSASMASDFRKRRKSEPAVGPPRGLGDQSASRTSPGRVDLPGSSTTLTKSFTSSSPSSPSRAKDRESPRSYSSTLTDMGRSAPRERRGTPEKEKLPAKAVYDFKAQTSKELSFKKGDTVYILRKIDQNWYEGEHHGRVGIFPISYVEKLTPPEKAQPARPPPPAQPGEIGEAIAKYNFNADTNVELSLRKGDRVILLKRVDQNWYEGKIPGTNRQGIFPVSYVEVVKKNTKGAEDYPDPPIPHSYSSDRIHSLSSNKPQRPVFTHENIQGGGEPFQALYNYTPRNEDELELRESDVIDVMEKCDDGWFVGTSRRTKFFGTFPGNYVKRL"}, "B4": {"name": "Adiponectin (Homo sapiens), Q15848 (parent)", "chain": "MLLLGAVLLLLALPGHDQETTTQGPGVLLPLPKGACTGWMAGIPGHPGHNGAPGRDGRDGTPGEKGEKGDPGLIGPKGDIGETGVPGAEGPRGFPGIQGRKGEPGEGAYVYRSAFSVGLETYVTIPNMPIRFTKIFYNQQNHYDGSTGKFHCNIPGLYYFAYHITVYMKDVKVSLFKKDKAMLFTYDQYQENNVDQASGSVLLHLEVGDQVWLQVYGEGERNGLYADNDNDSTFTGFLLYHDTN", "partner": "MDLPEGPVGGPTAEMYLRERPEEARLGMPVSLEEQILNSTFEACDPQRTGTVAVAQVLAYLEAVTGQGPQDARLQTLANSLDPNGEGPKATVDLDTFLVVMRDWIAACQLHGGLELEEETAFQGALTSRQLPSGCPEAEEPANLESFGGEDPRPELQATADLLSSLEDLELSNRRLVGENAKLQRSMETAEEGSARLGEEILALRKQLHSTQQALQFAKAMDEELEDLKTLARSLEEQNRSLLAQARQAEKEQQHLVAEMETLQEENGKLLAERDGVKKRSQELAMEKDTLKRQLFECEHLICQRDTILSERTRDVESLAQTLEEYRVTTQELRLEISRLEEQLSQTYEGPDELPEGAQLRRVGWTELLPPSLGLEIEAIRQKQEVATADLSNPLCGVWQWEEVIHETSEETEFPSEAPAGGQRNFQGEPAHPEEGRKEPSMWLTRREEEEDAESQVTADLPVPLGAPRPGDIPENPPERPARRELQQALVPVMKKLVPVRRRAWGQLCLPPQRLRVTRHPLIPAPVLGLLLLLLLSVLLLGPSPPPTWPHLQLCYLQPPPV"}, "B5": {"name": "Methylmalonyl-CoA epimerase, mitochondrial (Homo sapiens), Q96PE7 (parent)", "chain": "MARVLKAAAANAVGLFSRLQAPIPTVRASSTSQPLDQVTGSVWNLGRLNHVAIAVPDLEKAAAFYKNILGAQVSEAVPLPEHGVSVVFVNLGNTKMELLHPLGRDSPIAGFLQKNKAGGMHHICIEVDNINAAVMDLKKKKIRSLSEEVKIGAHGKPVIFLHPKDCGGVLVELEQA"}}, "data": [{"variants_of": "B1", "conditions": "with syce1_human SYCE1, Q8N0S2", "values": [{"variant": "L162P", "effect of a mutation on the interaction": "disrupting interaction strength"}]}, {"variants_of": "B2", "conditions": "with zf64b_human ZFP64, Q9NTW7", "values": [{"variant": "L107V", "effect of a mutation on the interaction": "with no effect"}]}, {"variants_of": "B3", "conditions": "with SORBS2, O94875-10", "values": [{"variant": "W94R", "effect of a mutation on the interaction": "disrupting interaction strength"}]}, {"variants_of": "B4", "conditions": "with kash5_human KASH5, Q8N6L0", "values": [{"variant": "Y111H", "effect of a mutation on the interaction": "with no effect"}, {"variant": "I164T", "effect of a mutation on the interaction": "with no effect"}]}, {"variants_of": "B5", "conditions": "with AGTRAP", "values": [{"variant": "R143H", "effect of a mutation on the interaction": "with no effect"}, {"variant": "R143C", "effect of a mutation on the interaction": "with no effect"}, {"variant": "A76V", "effect of a mutation on the interaction": "with no effect"}]}, {"variants_of": "B5", "conditions": "with CMTM5, Q96DZ9-2", "values": [{"variant": "R143H", "effect of a mutation on the interaction": "with no effect"}, {"variant": "R143C", "effect of a mutation on the interaction": "with no effect"}, {"variant": "A76V", "effect of a mutation on the interaction": "with no effect"}]}]}
